Data: patent US7084111 (UNIVERSITY OF FLORIDA RESEARCH FOUNDATION, dated 2006)
Bridges are numbered along the chain shown (N, C = ends). Where no end group is shown, it is not given here. [ ]: non-standard residue; d: D form. Nle = CCCC[C@H](N)C(=O)O; Dap = NC[C@H](N)C(=O)O

B1: SEQ ID NO:1 (Tyr-c[Cys-Arg-Phe-DPhe-Asn-Ala-Phe-Cys]-Tyr) (peptide)
peptide: YCRF[dF]NAFCY-NH2
modifications: disulfide 2-9; N-terminus assumed
SMILES: C[C@@H]1NC(=O)[C@H](CC(N)=O)NC(=O)[C@@H](Cc2ccccc2)NC(=O)[C@H](Cc2ccccc2)NC(=O)[C@H](CCCNC(=N)N)NC(=O)[C@@H](NC(=O)[C@@H](N)Cc2ccc(O)cc2)CSSC[C@@H](C(=O)N[C@@H](Cc2ccc(O)cc2)C(N)=O)NC(=O)[C@H](Cc2ccccc2)NC1=O
B2: SEQ ID NO:41 (Tyr-c[Asp-His-DPhe-Arg-Bip-Asn-Ala-Phe-Dpr]-Tyr) (peptide)
peptide: YDHXRXNAFXY
modifications: Asp-Dpr side chain lactam bridge; Dpr; DPhe; Bip; C-terminal amide (amide resin)
B3: SEQ ID NO:40 (Tyr-c[Asp-His-DPhe-Arg-DNal(2′)-Asn-Ala-Phe-Dpr]-Tyr) (peptide)
peptide: YDHXRXNAFXY
modifications: Asp-Dpr side chain lactam bridge; Dpr; DPhe; DNal(2′); C-terminal amide (amide resin)
B4: SEQ ID NO:5 (Tyr-c[Asp-Trp-Arg-DPhe-Asn-Ala-Phe-Dpr]-Tyr) (peptide)
peptide: YDWR[dF]NAF[Dap]Y-NH2
modifications: lactam 2-9; N-terminus assumed
SMILES: C[C@@H]1NC(=O)[C@H](CC(N)=O)NC(=O)[C@@H](Cc2ccccc2)NC(=O)[C@H](CCCNC(=N)N)NC(=O)[C@H](Cc2c[nH]c3ccccc23)NC(=O)[C@@H](NC(=O)[C@@H](N)Cc2ccc(O)cc2)CC(=O)NC[C@@H](C(=O)N[C@@H](Cc2ccc(O)cc2)C(N)=O)NC(=O)[C@H](Cc2ccccc2)NC1=O
B5: SEQ ID NO:2 (Tyr-c[Asp-Ala-Ala-Ala-Asn-Ala-Phe-Dpr]-Tyr) (peptide)
peptide: YDAAANAF[Dap]Y-NH2
modifications: lactam 2-9; N-terminus assumed
SMILES: C[C@@H]1NC(=O)[C@H](C)NC(=O)[C@@H](NC(=O)[C@@H](N)Cc2ccc(O)cc2)CC(=O)NC[C@@H](C(=O)N[C@@H](Cc2ccc(O)cc2)C(N)=O)NC(=O)[C@H](Cc2ccccc2)NC(=O)[C@H](C)NC(=O)[C@H](CC(N)=O)NC(=O)[C@H](C)NC1=O
B6: SEQ ID NO:4 (Tyr-c[Asp-Trp-Arg-Phe-Asn-Ala-Phe-Dpr]-Tyr) (peptide)
peptide: YDWRFNAF[Dap]Y-NH2
modifications: lactam 2-9; N-terminus assumed
SMILES: C[C@@H]1NC(=O)[C@H](CC(N)=O)NC(=O)[C@H](Cc2ccccc2)NC(=O)[C@H](CCCNC(=N)N)NC(=O)[C@H](Cc2c[nH]c3ccccc23)NC(=O)[C@@H](NC(=O)[C@@H](N)Cc2ccc(O)cc2)CC(=O)NC[C@@H](C(=O)N[C@@H](Cc2ccc(O)cc2)C(N)=O)NC(=O)[C@H](Cc2ccccc2)NC1=O
B7: SEQ ID NO:30 (Tyr-c[Asp-(rac)Atc-DPhe-Arg-Trp-Asn-Ala-Phe-Dpr]-Tyr) (peptide)
peptide: YDXXRWNAFXY
modifications: Asp-Dpr side chain lactam bridge; Dpr; (rac)Atc; DPhe; C-terminal amide (amide resin)
B8: SEQ ID NO:18 (Ac-Ser-Tyr-Ser-Nle-Glu-His-Arg-Phe-DPhe-Gly-Lys-Pro-Val) (peptide)
peptide: Ac-SYS[Nle]EHRF[dF]GKPV-NH2
SMILES: CCCC[C@H](NC(=O)[C@H](CO)NC(=O)[C@H](Cc1ccc(O)cc1)NC(=O)[C@H](CO)NC(C)=O)C(=O)N[C@@H](CCC(=O)O)C(=O)N[C@@H](Cc1c[nH]cn1)C(=O)N[C@@H](CCCNC(=N)N)C(=O)N[C@@H](Cc1ccccc1)C(=O)N[C@H](Cc1ccccc1)C(=O)NCC(=O)N[C@@H](CCCCN)C(=O)N1CCC[C@H]1C(=O)N[C@H](C(N)=O)C(C)C

What was measured:
Assay in all cases: cell-based or functional assay
[1] = molecular target: mouse melanocortin-4 receptor (mouse, UniProt P56450 1-332)
Chain of mouse melanocortin-4 receptor (P56450 whole entry): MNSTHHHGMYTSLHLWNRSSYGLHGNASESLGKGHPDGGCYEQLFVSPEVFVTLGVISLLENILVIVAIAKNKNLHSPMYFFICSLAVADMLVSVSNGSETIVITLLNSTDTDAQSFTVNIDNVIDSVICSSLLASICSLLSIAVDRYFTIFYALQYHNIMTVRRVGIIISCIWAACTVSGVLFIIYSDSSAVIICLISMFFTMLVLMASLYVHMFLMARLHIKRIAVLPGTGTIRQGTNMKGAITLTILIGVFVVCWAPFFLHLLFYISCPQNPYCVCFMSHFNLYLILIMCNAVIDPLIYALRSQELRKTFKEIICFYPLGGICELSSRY

[2] = molecular target: mouse melanocortin-3 receptor (mouse, UniProt P33033 1-323)
Chain of mouse melanocortin-3 receptor (P33033 whole entry): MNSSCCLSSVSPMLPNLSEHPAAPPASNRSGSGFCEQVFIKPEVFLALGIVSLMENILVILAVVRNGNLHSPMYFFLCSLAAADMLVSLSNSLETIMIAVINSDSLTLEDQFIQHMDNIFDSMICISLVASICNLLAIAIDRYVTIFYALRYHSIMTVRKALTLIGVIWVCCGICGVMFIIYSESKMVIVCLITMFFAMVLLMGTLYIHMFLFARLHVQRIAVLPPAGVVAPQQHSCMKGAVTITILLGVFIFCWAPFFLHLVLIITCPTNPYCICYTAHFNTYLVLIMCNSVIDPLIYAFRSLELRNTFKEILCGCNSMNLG

[3] = molecular target: mouse melanocortin-5 receptor (mouse, UniProt P41149 1-325)
Chain of mouse melanocortin-5 receptor (P41149 whole entry): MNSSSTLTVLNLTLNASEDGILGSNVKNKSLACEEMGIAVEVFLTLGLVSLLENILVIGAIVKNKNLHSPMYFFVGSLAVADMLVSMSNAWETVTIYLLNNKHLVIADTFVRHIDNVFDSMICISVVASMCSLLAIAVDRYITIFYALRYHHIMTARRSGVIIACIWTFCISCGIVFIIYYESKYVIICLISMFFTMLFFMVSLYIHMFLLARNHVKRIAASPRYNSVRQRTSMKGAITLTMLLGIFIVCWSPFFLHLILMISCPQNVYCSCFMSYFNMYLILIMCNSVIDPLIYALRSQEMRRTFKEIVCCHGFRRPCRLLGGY

[4] = molecular target: mouse melanocortin-1 receptor (mouse, UniProt Q01727 1-315)
Chain of mouse melanocortin-1 receptor (Q01727 whole entry): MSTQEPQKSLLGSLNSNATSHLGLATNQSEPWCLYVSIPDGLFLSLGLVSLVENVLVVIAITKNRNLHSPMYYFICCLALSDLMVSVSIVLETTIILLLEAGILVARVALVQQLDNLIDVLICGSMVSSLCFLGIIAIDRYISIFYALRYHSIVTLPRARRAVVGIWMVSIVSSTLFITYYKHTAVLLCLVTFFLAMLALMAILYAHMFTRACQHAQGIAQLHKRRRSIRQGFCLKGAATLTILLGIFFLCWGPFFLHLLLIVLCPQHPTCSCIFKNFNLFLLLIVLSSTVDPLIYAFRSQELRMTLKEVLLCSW

Binder	EC50 (agonist) [1] [nM]	EC50 (agonist) [2] [nM]	EC50 (agonist) [3] [nM]	EC50 (agonist) [4] [nM]	pA2 (antagonist; Partial agonist) [1]	EC50 (agonist; Partial agonist) [1] [nM]	pA2 (antagonist; Partial agonist) [2]	pA2 (antagonist) [2]
Ac-SYS[Nle]EH[dR]FFGKPV-NH2 [SEQ ID NO:16 (Ac-Ser-Tyr-Ser-Nle-Glu-His-DArg-Phe-Phe-Gly-Lys-Pro-Val)]	> 100000	> 100000						
YDHXPWNAFXY (Asp-Dpr side chain lactam bridge; Dpr; DPhe; C-terminal amide (amide resin)) [SEQ ID NO:36 (Tyr-c[Asp-His-DPhe-Pro-Trp-Asn-Ala-Phe-Dpr]-Tyr)]	4300	17300	3200	990				
B1		> 100000	239	61.3	6.1			
YDAXRWNAFXY (Asp-Dpr side chain lactam bridge; Dpr; DPhe; C-terminal amide (amide resin)) [SEQ ID NO:24 (Tyr-c[Asp-Ala-DPhe-Arg-Trp-Asn-Ala-Phe-Dpr]-Tyr)]	0.36	29	0.46	7.2				
B2	42.6	450	3.43	11.6				
YDHXRWNAFXY (Asp-Dpr side chain lactam bridge; Dpr; DNal(1′); C-terminal amide (amide resin)) [SEQ ID NO:34 (Tyr-c[Asp-His-DNal(1′)-Arg-Trp-Asn-Ala-Phe-Dpr]-Tyr)]	0.57	320	3.13	9.2				
B3	0.67	6.5	0.95	0.2				
YDHXKWNAFXY (Asp-Dpr side chain lactam bridge; Dpr; DPhe; C-terminal amide (amide resin)) [SEQ ID NO:37 (Tyr-c[Asp-His-DPhe-Lys-Trp-Asn-Ala-Phe-Dpr]-Tyr)]	8600	30800	800	680				
B4	10900		2220	6120				
B5	> 100000	> 100000	> 100000	> 100000				
YD[dF]RWNAF[Dap]Y-NH2 (lactam 2-9) [SEQ ID NO:7 (Tyr-c[Asp-DPhe-Arg-Trp-Asn-Ala-Phe-Dpr]-Tyr-NH2)]	450		124	4850				
B6		> 100000	> 100000	13500		15900		
YDFXRWNAFXY (Asp-Dpr side chain lactam bridge; Dpr; DPhe; C-terminal amide (amide resin)) [SEQ ID NO:29 (Tyr-c[Asp-Phe-DPhe-Arg-Trp-Asn-Ala-Phe-Dpr]-Tyr)]	0.64		3.15	6.04			7.2	
B7	115		440	690				6.4
B8	> 100000	> 100000		3630				
Ac-[Nle]DHR[dF]FK-NH2 (lactam 2-7) [SEQ ID NO:22 (Ac-Nle-c[Asp-His-Arg-DPhe-Phe-Lys])]	5000	14400	3600	440				
